The text below walks through data of PMC8283798.

pEC50: −log10 of the molar value.

Experiment [1] deals with FcγRIIIa-V158 (high-affinity FcγIIIa receptor allele) (human) (UniProt P08637). Description: ELISA. In general terms: In an ELISA, binding on a coated surface is turned into a signal by an enzyme label.
The target in experiment [2] is FcγRIIIa-F158 (low-affinity FcγIIIa receptor allele) (human) (UniProt P08637). Description: ELISA.

As a reminder, the pEC50 is the EC50 on a negative log10 scale, so that one unit is a factor of ten. The low end stands for a large EC50, the high end for a small EC50. With “G2 (11), nonfucosylated Herceptin glycoform carrying the biantennary complex-type N-glycan (antibody)”, the pEC50 in experiment [1] was 8.92. Consider “G2 (11), nonfucosylated Herceptin glycoform carrying the biantennary complex-type N-glycan (antibody; other documents disagree on this pair)”, for which the negative-log EC50 (pEC50) in experiment [2] is 7.94. With “G2(Az)F (2), core 6-azido-fucosylated Herceptin carrying a complex-type N-glycan (antibody)”, the pEC50 in experiment [1] was 8.54. With “G2(Az)F (2), core 6-azido-fucosylated Herceptin carrying a complex-type N-glycan (antibody; other documents disagree on this pair)”, the pEC50 in experiment [2] is 7.89.

In the case of “G2(NH2)F (3), core 6-amino-fucosylated Herceptin (antibody)”, the pEC50 in experiment [1] was 8.03.

“G2(NH2)F (3), core 6-amino-fucosylated Herceptin (antibody; other documents disagree on this pair)” showed a pEC50 in experiment [2] of 7.05. Take “G2(OH- triazol)F (4), core 6-triazole-fucosylated Herceptin (antibody)”: the pEC50 in experiment [1] was 7.74. Substance “G2(OH- triazol)F (4), core 6-triazole-fucosylated Herceptin (antibody; other documents disagree on this pair)” had a pEC50 in experiment [2] of 7.09. For “G2Ara (6), core D-arabinosylated Herceptin (antibody)”, the negative-log EC50 (pEC50) in experiment [1] was 7.40.

In experiment [2], “G2Ara (6), core D-arabinosylated Herceptin (antibody; other documents disagree on this pair)” showed a pEC50 of 5.84.

“G2F (1), core-fucosylated Herceptin glycoform carrying the biantennary complex-type N-glycan (antibody)”: the pEC50 in experiment [1] is 7.37. With “G2F (1), core-fucosylated Herceptin glycoform carrying the biantennary complex-type N-glycan (antibody; other documents disagree on this pair)”, the pEC50 in experiment [2] was 5.80. As for “G2Gal (5), core L-galactosylated Herceptin (antibody)”, in experiment [1], the pEC50 is 8.14. On to “G2Gal (5), core L-galactosylated Herceptin (antibody; other documents disagree on this pair)”, for which the pEC50 in experiment [2] was 7.07.
